From article PMC5034116 (Cell Research, 2016)

Target: the molecule itself
Test: crystal structure

B1: NudC (residues 1-257, E178Q), Escherichia coli, active-site mutant (enzyme, UniProt P32664 1-257, looked up)
chain: MDRIIEKLDHGWWVVSHEQKLWLPKGELPYGEAANFDLVGQRALQIGEWQGEPVWLVQQQRRHDMGSVRQVIDLDVGLFQLAGRGVQLAEFYRSHKYCGYCGHEMYPSKTEWAMLCSHCRERYYPQIAPCIIVAIRRDDSILLAQHTRHRNGVHTVLAGFVEVGETLEQAVAREVMEQSGIKVKNLRYVTSQPWPFPQSLMTAFMAEYDSGDIVIDPKELLEANWYRYDDLPLLPPPGTVARRLIEDTVAMCRAEYE
stoichiometry N: 2
